Five molecules from US20240325555A1 (LANOVA MEDICINES, published 2024) can be followed below.

For assay [1], the target named is T1, human LIV-1 (human, UniProt Q13433 29-755).
T1 sequence (looked up): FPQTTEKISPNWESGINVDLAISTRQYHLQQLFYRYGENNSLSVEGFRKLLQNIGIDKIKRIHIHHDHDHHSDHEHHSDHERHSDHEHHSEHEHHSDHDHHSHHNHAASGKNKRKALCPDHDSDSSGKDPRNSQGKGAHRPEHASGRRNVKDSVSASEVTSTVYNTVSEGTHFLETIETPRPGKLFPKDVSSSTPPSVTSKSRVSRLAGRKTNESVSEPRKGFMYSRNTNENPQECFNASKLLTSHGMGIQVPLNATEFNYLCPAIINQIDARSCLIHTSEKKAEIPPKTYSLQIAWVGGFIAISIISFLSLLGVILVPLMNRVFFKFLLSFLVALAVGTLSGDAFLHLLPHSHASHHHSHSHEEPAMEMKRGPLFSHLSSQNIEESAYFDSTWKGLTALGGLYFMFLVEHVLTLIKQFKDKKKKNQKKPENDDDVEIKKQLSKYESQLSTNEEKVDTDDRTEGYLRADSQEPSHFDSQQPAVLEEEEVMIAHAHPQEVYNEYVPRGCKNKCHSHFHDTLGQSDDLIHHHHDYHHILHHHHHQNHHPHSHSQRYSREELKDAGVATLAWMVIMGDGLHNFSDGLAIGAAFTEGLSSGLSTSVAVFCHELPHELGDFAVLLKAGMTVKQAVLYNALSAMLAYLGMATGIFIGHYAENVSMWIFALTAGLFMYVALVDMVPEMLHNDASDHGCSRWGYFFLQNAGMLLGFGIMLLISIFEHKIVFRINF
Put plainly: cell-based or functional assay.

Assay [2] has as its target T1, human LIV-1. In words: cell-based or functional assay. The source holds these as a separate data set.
Assay [3] concerns the target T1, human LIV-1. Put plainly: cell-based or functional assay. The source holds these as a separate data set.
The target of the next assay is cynomolgus LIV-1 (cynomolgus, UniProt A0A2K5WH46 30-741). Put plainly: FACS, HEK293/Cyno_LIV-1 cells. In a few lines:
(§1)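 HEK293 cells over-expressing human or cyno LIV-1 incubated with chimeric Abs (from 100 nM, 5-fold dilutions, 8 points) for 60 min at 4 °C, then fluorescent secondary antibody 30 min at 4 °C; washes in 2% FBS/PBS. Binding read by flow cytometry; EC50 from the titration curve.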
A general note: A flow cytometer gives signals particle by particle.

In assay [4] the target is T1, human LIV-1. In words: FACS, HEK293/H_LIV-1 cells. Put shortly:
as §1

Assay [5] deals with T1, human LIV-1. Put plainly: FACS, BT20/H_LIV-1 High cells. On the procedure: (§2) Cell based binding of ADC and naked of ADC on human LIV-1 expressing cells were assessed using flow cytometry. Briefly, HEK293/H_LIV-1, both low- and high-expressing H-LIV1-positive cell lines were incubated with ADC and naked of ADC (from 100 nM, 6 folds dilution, 8 points), respectively. After incubation at 4° C. for 60 minutes, the cells were washed with FACS buffer twice, then stained with fluorescent conjugated secondary antibody at 4° C. for 30 minutes. After that the cells were washed twice and analyzed by flow cytometry.

Assay [6] addresses T1, human LIV-1. In words: FACS, BT20/H_LIV-1 Low cells. The procedure:
as §2

Assay [7] deals with T1, human LIV-1. Put plainly: FACS, HEK293/H_LIV-1 cells. The procedure:
as §2
The source holds these as a separate data set.

Assay [8] has as its target T1, human LIV-1. Put plainly: cell-based or functional assay. The source holds these as a separate data set.

B1: 293F10B6 (antibody, V domains shown)
VH: QVTLKESGPGMLQPSQTLNLTCSFSGFSLNTSGMGVSWIRQPSGKGLEWLAHIFWDDDKRYNPSLKSRLTISKDVSSNQVFLKITSVDTADTATYFCARRARNNYPWFPYWGQGTLVTVSA
VL: DIVLTQSPASLAVSLGQRATISCKASQSVDYDGDSYMNWYQQKPGQPPKLLIYAASNLDSGIPARFSGSGSGTDFTLNIHPMEDEDVATYYCQQSNGAPFTFGGGTKLEIK
notes: Tested as chimeric antibody
As for B1, in the assay with human LIV-1 [1], the “Internalization EC50” value is 6.1 nM and the “Internalization Top (RFU)” value amounted to 495000 RFU. In addition, in the assay with human LIV-1 [2], the “Cell viability(%)” value was 3.41% and the “Cytotoxicity IC50” value was found to be 1.46 nM. Also, in the assay with human LIV-1 [3], the “ADCC reporter EC50” value stood at 7.9 nM and the “ADCC reporter Top (RFU)” value stood at 133000 RFU. For the same molecule, in the assay with cynomolgus LIV-1, a half-maximal response (EC50) required 0.98 nM and the “Top (MFI)” value was found to be 2250 MFI. In the assay with human LIV-1 [4], the response was half-maximal at 0.45 nM (EC50) and the “Top (MFI)” value is 8100 MFI.

B2: 290F10G10.z2-Eribulin (antibody, V domains shown)
VH: EVQLVQSGAEVKKPGASVKVSCKASGYTFTSYWIHWVRQAPGQGLEWMGTIYPGDADTRSTQKFKDRVTMTADTSTSTVYMELSSLRSEDTAVYYCARSLIHDDYDKYYFDYWGQGTTVTVSS
VL: DIQMTQSPSSLSASVGDRVTITCKARQDINKYIAWYQQKPGKAPKLLIHYTSILQPGIPSRFSGSGSGRDYTFTISSLQPEDIATYYCLQYDYFFTFGGGTKVEIK
modifications: Eribulin drug moiety conjugated; site and chain not stated
As to B2, in the assay with human LIV-1 [5], the EC50 (as a rule, the concentration needed to bring the measured effect to its halfway point) is 1.2 nM and the “Top (MFI)” value was 21000 MFI. Besides, in the assay with human LIV-1 [6], the 50% effective concentration (EC50) came to 1.14 nM and the “Top (MFI)” value came out at 3620 MFI. In the assay with human LIV-1 [7], the EC50 was found to be 0.55 nM and the “Top (MFI)” value was 18800 MFI. In the assay with human LIV-1 [8], the “Min cell viability %, BT20/H_LIV-1 High” value came to 17.6%; the “Min cell viability %, BT20/H_LIV-1 Low” value came to 38.4%; the “Min cell viability %, HEK293/H_LIV-1” value was found to be 18.4%.

B3: 5D6B10.z7-Eribulin (antibody, V domains shown)
VH: QVQLVQSGGGVVQPGRSLRLSCTVSGFSLTTYGIHWVRQSPGKGLEWLGVIWTGGTTDYNAAFISRLTISKDNSKSTVYFQMNSLQAEDTAIYYCARGPSSYWGQGTLVTVSS
VL: EIVMTQSPATLSVSPGERATLSCKASQNVDTNVVWYQQKPGQSPRALIYSASYRYSGVPARFSGSGSGTEFTLTISSLQSEDFAVYFCQQYNNYPWTFGQGTKVEIK
modifications: Eribulin drug moiety conjugated; site and chain not stated
notes: Antibody-drug conjugate of 5D6B10.z7; human gamma 1/kappa
As for B3, in the assay with human LIV-1 [5], a half-maximal effect (EC50) was put at 0.87 nM and the “Top (MFI)” value amounted to 154000 MFI. In the assay with human LIV-1 [6], the EC50 came out at 0.5 nM and the “Top (MFI)” value is 37200 MFI. Moreover, in the assay with human LIV-1 [7], a half-maximal response (EC50) required 0.47 nM and the “Top (MFI)” value was determined as 98700 MFI. In addition, in the assay with human LIV-1 [8], the “Min cell viability %, BT20/H_LIV-1 High” value is 31.5%; the “Min cell viability %, BT20/H_LIV-1 Low” value worked out at 42.9%; the “Min cell viability %, HEK293/H_LIV-1” value is 21.2%.

B4: 5D6B10.z7-MMAE (antibody, V domains shown)
VH: B3 VH
VL: B3 VL
modifications: MMAE drug moiety conjugated; site and chain not stated
notes: as for B3
Consider B4, for which, in the assay with human LIV-1 [5], it took 0.98 nM to reach a half-maximal effect (EC50) and the “Top (MFI)” value was 149000 MFI. Besides, in the assay with human LIV-1 [6], the EC50 was determined as 0.5 nM and the “Top (MFI)” value stood at 35300 MFI. Besides, in the assay with human LIV-1 [7], the half-maximal effective concentration (EC50) turned out to be 0.51 nM and the “Top (MFI)” value came out at 96400 MFI. In the assay with human LIV-1 [8], the “Min cell viability %, BT20/H_LIV-1 High” value amounted to 28.4%; the “Min cell viability %, BT20/H_LIV-1 Low” value is 43.5%; the “Min cell viability %, HEK293/H_LIV-1” value came out at 15%.

B5: 124H4D11.p2.z4-Eribulin (antibody, V domains shown)
VH: QVQLVQSGAEVVKPGASVKVSCKASGFNIKDYYMHWVRQAPGQGLEWIGWIDPENDDTEYDPKFQGRVTMTADTSTSTVYMELSSLRSEDTAVYYCAARYYAFDYWGQGTMVTVSS
VL: DVLMTQSPLSLPVTLGQPASISCRSSQSIVHSNANTYLEWYLQRPGQSPRLLIYKVSNRFSGVPDRFSGSGSGTDFTLKISRVEAEDVGVYYCFQGSQVPPTFGQGTKLEIK
modifications: Eribulin drug moiety conjugated; site and chain not stated
notes: Antibody-drug conjugate of 124H4D11.p2.z4; human gamma 1/kappa
Regarding B5, in the assay with human LIV-1 [5], it took 0.1 nM to reach a half-maximal effect (EC50) and the “Top (MFI)” value amounted to 19200 MFI. For the same molecule, in the assay with human LIV-1 [6], a half-maximal effect (EC50) was put at 0.05 nM and the “Top (MFI)” value came out at 3100 MFI. In the assay with human LIV-1 [7], the half-maximal effective concentration (EC50) is 0.1 nM and the “Top (MFI)” value came to 19400 MFI. In addition, in the assay with human LIV-1 [8], the “Min cell viability %, BT20/H_LIV-1 High” value was 20.7%; the “Min cell viability %, BT20/H_LIV-1 Low” value came out at 37.9%; the “Min cell viability %, HEK293/H_LIV-1” value was found to be 21.5%.
